The source of these data is patent US20230272114A1 (published 2023).

As usually defined, the Kd is the equilibrium constant for the complex coming apart.

For test [1], the target named is S267E. Description: Biacore SPR.
Test [2] has as its target T1, Fc region of IgE (UniProt P01854 105-428).
T1 chain: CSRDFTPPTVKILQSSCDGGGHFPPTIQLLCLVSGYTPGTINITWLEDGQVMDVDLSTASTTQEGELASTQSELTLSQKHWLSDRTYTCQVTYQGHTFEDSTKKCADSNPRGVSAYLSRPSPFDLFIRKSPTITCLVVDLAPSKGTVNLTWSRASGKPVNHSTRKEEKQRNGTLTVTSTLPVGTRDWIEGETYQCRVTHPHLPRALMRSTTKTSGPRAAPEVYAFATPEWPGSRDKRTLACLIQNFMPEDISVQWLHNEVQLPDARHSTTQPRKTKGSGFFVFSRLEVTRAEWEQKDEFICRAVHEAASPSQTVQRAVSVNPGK
The test can be described thus: Biacore.

The target in test [3] is T2, recombinant human FcγRIIb protein (R&D Systems) (human, UniProt P31994 46-217).
T2 chain: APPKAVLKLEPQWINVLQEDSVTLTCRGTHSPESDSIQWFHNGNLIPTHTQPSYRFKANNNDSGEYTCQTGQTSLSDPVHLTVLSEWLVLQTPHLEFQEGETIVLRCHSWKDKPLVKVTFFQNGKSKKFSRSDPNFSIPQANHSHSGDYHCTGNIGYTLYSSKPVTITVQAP
Description: Biacore SPR. For orientation: In SPR one partner is held on a chip, and binding of the other changes the refractive index at the surface.

B1: H131 FcγRIIa (receptor)
chain: QAAAPPKAVLKLEPPWINVLQEDSVTLTCQGARSPESDSIQWFHNGNLIPTHTQPSYRFKANNNDSGEYTCQTGQTSLSDPVHLTVLSEWLVLQTPHLEFQEGETIMLRCHSWKDKPLVKVTFFQNGKSQKFSHLDPTFSIPQANHSHSGDYHCTGNIGYTLFSSKPVTITVQVPSMGSSSPMGHHHHHH
Turning to B1, in test [1], the Kd was found to be 960 nM.

B2: MaE11_H1L1_IgG1_S267E/L328F (antibody)
chain 1: not shown
chain 2: DIQLTQSPSSLSASVGDRVTITCRASQSVDYDGDSYMNWYQQKPGQPPKLLIYAASYLGSEIPARFSGSGSGTDFTLTISSLQPEDFATYYCQQSHEDPYTFGAGTKLEIKRTVAAPSVFIFPPSDEQLKSGTASVVCLLNNFYPREAKVQWKVDNALQSGNSQESVTEQDSKDSTYSLSSTLTLSKADYEKHKVYACEVTHQGLSSPVTKSFNRGEC
Regarding B2, the dissociation constant Kd in test [2] was determined as 0.063 nM; in test [3], 5.6 nM.

B3: MaE11_H1L1_IgG1_G236R/L328R (antibody)
chain 1: not shown
chain 2: B2 chain 2
Regarding B3, the Kd in test [2] was determined as 0.064 nM.

B4: MaE11_H1L1_IgG1_WT (antibody)
chain 1: not shown
chain 2: B2 chain 2
Regarding B4, the equilibrium dissociation constant (Kd) came to 0.061 nM in test [2] and 2000 nM in test [3].

B5: FcγRIIb (receptor)
chain: T2 chain
B5 had a Kd in test [1] of 60 nM.

B6: FcγRI (receptor)
chain: QVDTTKAVITLQPPWVSVFQEETVTLHCEVLHLPGSSSTQWFLNGTATQTSTPSYRITSASVNDSGEYRCQRGLSGRSDPIQLEIHRGWLLLQVSSRVFTEGEPLALRCHAWKDKLVYNVLYYRNGKAFKFFHWNSNLTILKTNISHNGTYHCSGMGKHRYTSAGISVTVKELFPAPVLNASVTSPLLEGNLVTLSCETKLLLQRPGLQLYFSFYMGSKTLRGRNTSSEYQILTARREDSGLYWCEAATEDGNVLKRSPELELQVLGLQLPTP
Consider B6, for which, in test [1], the Kd stood at 0.26 nM.
